The values below come from EP1906184A1 (KYOWA HAKKO KOGYO CO., LTD., dated 2008).

The chains are these.
B1: anti-human VEGF receptor Flt-1 human CDR-grafted antibody KM8550 (antibody, V domains shown)
VH: QVQLVQSGAEVKKPGASVKVSCKASGYTFINYNMHWVRQAPGQGLEWMGAIFPGNGFTSYNQKFKGRVTITVDKSTSTAYMELSSLRSEDTAVYYCARDGDYYFDYWGQGTLVTVSS
VL: DIQMTQSPSSLSASVGDRVTITCSASSSVSYMHWYQQKPGKAPKLLIYRTSNLASGVPSRFSGSGSGTDFTLTISSLQPEDFATYYCHQWSMYTFGQGTKVEIK
notes: Human CDR-grafted IgG; also called 1750HV0 + 1750LV0(I); pKANTEX1750HV0LV0(I)
B2: anti-human VEGF receptor Flt-1 human CDR-grafted antibody KM8551 (antibody, V domains shown)
VH: QVQLVQSGAEVKKPGASVKVSCKASGYTFINYNMHWVRQAPGQGLEWMGAIFPGNGFTSYNQKFKGRVTITVDKSTSTAYMELSSLRSEDTAVYYCARDGDYYFDYWGQGTLVTVSS
VL: DIVMTQSPDSLAVSLGERATINCSASSSVSYMHWYQQKPGQPPKLLIYRTSNLASGVPDRFSGSGSGTDFTLTISSLQAEDVAVYYCHQWSMYTFGQGTKVEIK
notes: Human CDR-grafted IgG; also called 1750HV0 + 1750LV0(IV); pKANTEX1750HV0LV0(IV)
B3: anti-human VEGF receptor Flt-1 human CDR-grafted antibody KM8552 (antibody, V domains shown)
VH: QVQLVQSGAEVKKPGASVKVSCKASGYTFINYNMHWVRQAPGQGLEWMGAIFPGNGFTSYNQKFKGRVTITVDKSTSTAYMQLRSLRSEDTAVYFCARDGDYYFDYWGQGTLVTVSS
VL: DIQMTQSPSSLSASVGDRVTITCSASSSVSYMHWYQQKPGKAPKLLIYRTSNLASGVPSRFSGSGSGTDFTLTISSLQPEDFATYYCHQWSMYTFGQGTKVEIK
notes: Human CDR-grafted IgG with modified FR in VH; also called 1750HV3 + 1750LV0(I); pKANTEX1750HV3LV0(I)
B4: anti-human VEGF receptor Flt-1 human CDR-grafted antibody KM8554 (antibody, V domains shown)
VH: QVQLVQSGAEVKKPGASVKVSCKASGYTFINYNMHWVRQAPGQGLEWMGAIFPGNGFTSYNQKFKGRVTITVDKSTSTAYMELSSLRSEDTAVYYCARDGDYYFDYWGQGTLVTVSS
VL: DIQMTQSPSSLSASVGEEVTITCSASSSVSYMHWYQQKPGKAPKLLIYRTSNLASGVPSRFSGSGSGTFYTLTISSLQPEDFATYYCHQWSMYTFGQGTKVEIK
notes: Human CDR-grafted IgG with modified FR in VL; also called 1750HV0 + 1750LV4; pKANTEX1750HV0LV4
B5: anti-human VEGF receptor Flt-1 human CDR-grafted antibody KM8553 (antibody, V domains shown)
VH: QVQLVQSGAEVKKPGASVKVSCKASGYTFINYNMHWVRQAPGQGLEWMGAIFPGNGFTSYNQKFKGRVTITVDKSTSTAYMQLRSLRSEDTAVYFCARDGDYYFDYWGQGTLVTVSS
VL: DIVMTQSPDSLAVSLGERATINCSASSSVSYMHWYQQKPGQPPKLLIYRTSNLASGVPDRFSGSGSGTDFTLTISSLQAEDVAVYYCHQWSMYTFGQGTKVEIK
notes: Human CDR-grafted IgG with modified FR in VH; also called 1750HV3 + 1750LV0(IV); pKANTEX1750HV3LV0(IV)
B6: anti-human VEGF receptor Flt-1 human CDR-grafted antibody KM8555 (antibody, V domains shown)
VH: QVQLVQSGAEVKKPGASVKVSCKASGYTFINYNMHWVRQAPGQGLEWMGAIFPGNGFTSYNQKFKGRVTITVDKSTSTAYMQLRSLRSEDTAVYFCARDGDYYFDYWGQGTLVTVSS
VL: DIQMTQSPSSLSASVGEEVTITCSASSSVSYMHWYQQKPGKAPKLLIYRTSNLASGVPSRFSGSGSGTFYTLTISSLQPEDFATYYCHQWSMYTFGQGTKVEIK
notes: Human CDR-grafted IgG with modified FR in VH and VL; also called 1750HV3 + 1750LV4; pKANTEX1750HV3LV4
B7: anti-human VEGF receptor Flt-1 human chimeric antibody KM2550 (antibody, V domains shown)
VH: QAFLQQSGAELVRPGASVKMSCKASGYTFINYNMHWVKQTPRQGLEWIGAIFPGNGFTSYNQKFKGKATLTVDKSSSTVYMQLRSLTSEDSAVYFCARDGDYYFDYWGQGTTLTVSS
VL: QIVLTQSPAIMSASLGEEITLTCSASSSVSYMHWYQQKSGTSPKLLIYRTSNLASGVPFRFSGSGSGTFYSLTISSVEAEDAADYYCHQWSMYTFGGGTKLEIK
B8: anti-human VEGF receptor Flt-1 human chimeric antibody KM2532 (antibody, V domains shown)
VH: QGQMQQSGAELVKPGASVKLSCKPSGFTFSSNYISWLKQKPGQSLEWIAWIYAGTGDASYNQKFTAKAHVTVDTSSSTAYMQLSSLTTEDSAIYYCARHGGDGYWFAYWGQGTLVTVSA
VL: QLVLTQSPAIMSASQGEKVTMTCSASSSVSYMHWYQQKSGTSPKRWIYDTSKLPSGVPARFSGSGSGTSYSLTISSMEAEDAATYYCQQWSSNPPTFGAGTKLELK
B9: anti-human VEGF receptor Flt-1 mouse monoclonal antibody KM1750 (antibody, V domains shown)
VH: QAFLQQSGAELVRPGASVKMSCKASGYTFINYNMHWVKQTPRQGLEWIGAIFPGNGFTSYNQKFKGKATLTVDKSSSTVYMQLRSLTSEDSAVYFCARDGDYYFDYWGQGTTLTVSS
VL: QIVLTQSPAIMSASLGEEITLTCSASSSVSYMHWYQQKSGTSPKLLIYRTSNLASGVPFRFSGSGSGTFYSLTISSVEAEDAADYYCHQWSMYTFGGGTKLEIK
notes: Mouse IgG2b from hybridoma KM1750 (FERM BP-5700)
B10: anti-human VEGF receptor Flt-1 mouse monoclonal antibody KM1732 (antibody, V domains shown)
VH: QGQMQQSGAELVKPGASVKLSCKPSGFTFSSNYISWLKQKPGQSLEWIAWIYAGTGDASYNQKFTAKAHVTVDTSSSTAYMQLSSLTTEDSAIYYCARHGGDGYWFAYWGQGTLVTVSA
VL: QLVLTQSPAIMSASQGEKVTMTCSASSSVSYMHWYQQKSGTSPKRWIYDTSKLPSGVPARFSGSGSGTSYSLTISSMEAEDAATYYCQQWSSNPPTFGAGTKLELK
notes: Mouse IgG1 from hybridoma KM1732 (FERM BP-5698); also called anti-human Flt-1 monoclonal antibody KM1732

In one test the target is T1, soluble human VEGF receptor KDR 7N (human, UniProt P35968 20-757).
T1 construct: range 1-738; The range 1-738 counts on the mature protein, not on the precursor; Expressed in High Five insect cells (purity 70 to 80%); not shown: two amino acid residues derived from a linker
T1 sequence (P35968 20-757): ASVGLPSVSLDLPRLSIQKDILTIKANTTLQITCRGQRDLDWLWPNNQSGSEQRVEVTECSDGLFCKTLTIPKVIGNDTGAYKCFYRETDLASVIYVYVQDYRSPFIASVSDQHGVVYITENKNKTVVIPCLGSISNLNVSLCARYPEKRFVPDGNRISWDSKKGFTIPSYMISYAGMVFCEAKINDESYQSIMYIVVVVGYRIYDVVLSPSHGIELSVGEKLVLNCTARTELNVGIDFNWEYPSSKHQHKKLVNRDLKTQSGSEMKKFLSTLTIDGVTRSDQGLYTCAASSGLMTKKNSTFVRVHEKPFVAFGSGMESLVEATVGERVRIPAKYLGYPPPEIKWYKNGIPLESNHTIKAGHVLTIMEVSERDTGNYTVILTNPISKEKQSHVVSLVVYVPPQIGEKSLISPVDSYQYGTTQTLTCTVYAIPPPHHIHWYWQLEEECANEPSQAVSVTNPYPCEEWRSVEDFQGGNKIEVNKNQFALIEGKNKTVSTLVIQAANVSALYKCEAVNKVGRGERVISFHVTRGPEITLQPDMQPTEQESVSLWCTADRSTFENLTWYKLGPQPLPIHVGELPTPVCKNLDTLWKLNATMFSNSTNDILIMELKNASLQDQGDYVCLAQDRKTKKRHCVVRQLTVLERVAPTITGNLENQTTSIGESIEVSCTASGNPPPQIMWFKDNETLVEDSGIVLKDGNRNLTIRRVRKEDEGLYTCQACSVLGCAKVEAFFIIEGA
Briefly: ELISA, receptor coated at 10 µg/ml (3-fold dilutions). For orientation: An ELISA detects its analyte on a solid surface through an enzyme-linked reagent.
As to B1, the binding result was “no binding (tested: 5 µg/ml)”.
The same measure, in the same setting: in the case of B2 it was “no binding (tested: 5 µg/ml)”; in that of B3, “no binding (tested: 5 µg/ml)”.
On the same count and under the same terms, the same measure for B4: “no binding (tested: 5 µg/ml)”; for B5: “no binding (tested: 5 µg/ml)”; for B6: “no binding (tested: 5 µg/ml)”.

The next test deals with T1, soluble human VEGF receptor KDR 7N. Briefly: ELISA, receptor coated at 4 µg/ml, antibody concentration varied.
Turning to B7, the binding result is recorded as “no binding (tested: 0.0152 to 100 ng/ml)”.
The same measure, in the same setting: the same measure for B8: “no binding (tested: 0.0152 to 100 ng/ml)”.

Another test has the same target. The test is described as follows: ELISA, receptor coated at 4 µg/ml.
Consider B9, for which the binding result was “no binding (tested: 0.1 µg/ml)”.
As for B10, the binding result is reported as “no binding (tested: 0.1 µg/ml)”.
